Data published in publication PMC7042382 (2020).

Target: HIV-1 Gag protein peptide on HLA-B*57:01 (human)
Assay: multimer staining

B1: A16.2 (TCR)
alpha TRAV4 TRAJ20 CDR3: CLVGGEDYKLSF
beta TRBV4-3 TRBJ2-5 CDR3: CASSQARGGAETQYF
Question: Does B1 bind?
Answer: recognises

B2: A16.1 (TCR)
alpha TRAV4 TRAJ9 CDR3: CLVGEVRGGFKTIF
beta TRBV4-3 TRBJ2-5 CDR3: CASSQARGGAETQYF
Question: Does B2 bind?
Answer: recognises
